B1: CD40L: CD40 pathway activator, ETP-derived signal (protein, UniProt P29965 113-261, looked up)
CD40 ligand, soluble form: MQKGDQNPQIAAHVISEASSKTTSVLQWAEKGYYTMSNNLVTLENGKQLTVKRQGLYYIYAQVTFCSNREASSQAPFIASLCLKSPGRFERILLRAANTHSSAKPCGQQSIHLGGVFELQPGASVFVNVTDPSQVSHGTGFTSFGLLKL
B2: RANKL: RANK pathway activator, ETP-derived signal (protein, UniProt O14788 140-317, looked up)
Tumor necrosis factor ligand …: IRAEKAMVDGSWLDLAKRSKLEAQPFAHLTINATDIPSGSHKVSLSSWYHDRGWAKISNMTFSNGKLIVNQDGFYYLYANICFRHHETSGDLATEYLQLMVYVTKTSIKIPSSHTLMKGGSTKYWSGNSEFHFYSINVGGFFKLRSGEEISIEVSNPSLLDPDQDATYFGAFKVRDID

How the values were obtained:
[1] = tested on: iPSCs; experiment: Influence of TGF-β signaling on TEP induction from iPSCs, flow cytometry and qPCR on day 14 (Example 2); format: cell-based; details: TGF-β signaling modulation during AFE stage (days 5-6) and VPE stage (days 7-8); flow cytometry and qPCR day 14
Description: In another exemplary method, the influence of TGF-β signaling during generation of TEPs in two different stages was assessed. FIG. 4A is a schematic illustrating the timelines and culture conditions for the nine protocols performed in the present exemplary method. FIG. 2 provides a chart of agents, modulators, additives, and base mediums used in this and other exemplary methods herein.
For all nine exemplary experimental conditions, on Day 1, iPSCs were plated for differentiation in mTeSR+ supplemented with ROCKi according to the method disclosed above. […]
The 9 protocols testing the effect of TGF-β inhibition (Ly), omission, or activation (T) on TEP induction were tested and analyzed by flow cytometry and qPCR on day 14. FIG. 4B illustrates flow plot quantification of CD205^+EPCAM^+ cells from each differentiation protocol and FIGS. 4C-4E illustrate a qPCR analysis of HOXA3, KRT8, and FOXN1 gene expression in the cells from each differentiation protocol.
During the AFE stage (days 5-6) the influence of: 1) inhibition of TGF-β signaling (Ly—conditions […], 2, and 3); 2) no modulation of TGF-β signaling (conditions 4, 5, and 6); and 3) activation of TGF-β signaling (T—conditions 7, 8, and 9) was assessed. […]

[2] = tested on: iPSC-derived TEP; experiment: RANKL, CD40L and NOTCH agonists added in stage 4 or 5 of differentiation, flow cytometry and qPCR (Example 5); format: cell-based
Text: FIG. 7 illustrates an exemplary experimental set-up in accordance with certain embodiments of the present disclosure. This experimental set-up for production of add RANKL, CD40L, and NOTCH agonists in different combinations in stage 4 or 5 of differentiation of the progenitor cells.
FIGS. 8A-8B illustrate additional stimulants used to enhance thymic cell production having improved marker representation, 8A and […] illustrate percent representative marker outcome under the varying conditions in accordance with certain embodiments of the present disclosure.
FIGS. 9A-9B illustrate exemplary results from qPCR detection of representative markers FOXN1 and MHC-II (e.g., HLA-DR) protein expression corroborated by gene expression under control and experimental conditions in accordance with certain embodiments of the present disclosure.

Row | Molecule | expression of TEP/TEC markers CD205 and EPCAM, VPE marker HOXA3, TEP markers KRT8 and FOXN1 [1] | production of FOXN1+EPCAM+ cells [2]
1 | T: TGF-β activation (T), 1 ng/mL TGF-β | no influence | –
2 | B1 | – | did not enhance production
3 | B2 | – | did not enhance production
